# Results published in the supplement of paper PMC10065799, “High-throughput profiling of sequence recognition by tyrosine kinases and SH2 domains using bacterial peptide display” (eLife, 2023).
# Experiments:
# [1] = target: c-Src SH2; assay: SH2 binding enrichment of the phosphorylated peptide, bacterial display (enrichment ratio); higher = better substrate or ligand; peptides without Tyr show the background
# [2] = target: Grb2 SH2 (UniProt P62993); assay: as above
# [3] = target: SHP2-C SH2; assay: as above
# [4] = tested on: Fer (mouse); assay: phosphorylation enrichment, bacterial display (enrichment ratio); higher = better substrate or ligand; peptides without Tyr show the background
# [5] = target: Fyn (UniProt P06241); assay: as above
# Fyn, sequence (P06241 whole entry, looked up): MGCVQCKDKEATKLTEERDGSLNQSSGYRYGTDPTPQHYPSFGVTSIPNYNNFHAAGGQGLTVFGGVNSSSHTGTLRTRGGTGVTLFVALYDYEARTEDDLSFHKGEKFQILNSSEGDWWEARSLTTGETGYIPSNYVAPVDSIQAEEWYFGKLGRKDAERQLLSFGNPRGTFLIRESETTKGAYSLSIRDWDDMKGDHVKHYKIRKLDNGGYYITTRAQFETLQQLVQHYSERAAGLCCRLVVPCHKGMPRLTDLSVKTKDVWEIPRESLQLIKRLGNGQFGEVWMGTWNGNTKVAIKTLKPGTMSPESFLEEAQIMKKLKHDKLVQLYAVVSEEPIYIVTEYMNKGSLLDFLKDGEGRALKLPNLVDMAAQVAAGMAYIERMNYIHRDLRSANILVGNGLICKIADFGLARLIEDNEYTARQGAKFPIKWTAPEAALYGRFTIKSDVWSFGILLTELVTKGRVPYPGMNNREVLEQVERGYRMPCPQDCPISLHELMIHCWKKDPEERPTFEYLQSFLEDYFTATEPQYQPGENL
# [6] = target: FGFR3 (UniProt P22607); assay: as above
# [7] = target: Jak2 (UniProt O60674); assay: as above
# Jak2, sequence (O60674 whole entry, looked up): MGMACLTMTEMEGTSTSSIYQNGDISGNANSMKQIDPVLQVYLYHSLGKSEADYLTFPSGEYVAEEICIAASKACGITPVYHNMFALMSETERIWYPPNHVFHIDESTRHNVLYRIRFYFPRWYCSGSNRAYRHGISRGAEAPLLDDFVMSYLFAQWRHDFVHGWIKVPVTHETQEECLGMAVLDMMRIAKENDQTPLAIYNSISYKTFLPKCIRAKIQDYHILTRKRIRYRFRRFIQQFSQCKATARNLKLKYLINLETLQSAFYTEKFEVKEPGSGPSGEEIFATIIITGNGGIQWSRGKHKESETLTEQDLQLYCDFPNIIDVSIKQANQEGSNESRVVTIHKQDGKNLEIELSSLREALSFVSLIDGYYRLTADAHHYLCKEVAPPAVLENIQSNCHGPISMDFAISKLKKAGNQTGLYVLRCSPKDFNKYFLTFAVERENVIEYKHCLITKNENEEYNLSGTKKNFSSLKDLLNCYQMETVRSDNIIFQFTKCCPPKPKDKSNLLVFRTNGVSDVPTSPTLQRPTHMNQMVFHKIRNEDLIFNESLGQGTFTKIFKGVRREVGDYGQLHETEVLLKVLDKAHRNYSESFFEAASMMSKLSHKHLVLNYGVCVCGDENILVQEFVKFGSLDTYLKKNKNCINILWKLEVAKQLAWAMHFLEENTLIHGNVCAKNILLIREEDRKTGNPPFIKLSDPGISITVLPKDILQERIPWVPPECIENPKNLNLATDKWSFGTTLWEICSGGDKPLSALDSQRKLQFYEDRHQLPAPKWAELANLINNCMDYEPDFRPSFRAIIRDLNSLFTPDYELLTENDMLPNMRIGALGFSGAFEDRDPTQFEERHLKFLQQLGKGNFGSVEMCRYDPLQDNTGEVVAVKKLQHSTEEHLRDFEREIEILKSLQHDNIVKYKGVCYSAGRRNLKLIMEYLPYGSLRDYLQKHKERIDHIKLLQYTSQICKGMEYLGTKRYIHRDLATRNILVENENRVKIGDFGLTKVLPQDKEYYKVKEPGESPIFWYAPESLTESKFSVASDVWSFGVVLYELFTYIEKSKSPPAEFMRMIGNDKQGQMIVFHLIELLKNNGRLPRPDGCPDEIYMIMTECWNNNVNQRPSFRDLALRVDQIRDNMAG
# [8] = target: MERTK (UniProt Q12866); assay: as above
# MERTK, sequence (Q12866 whole entry, looked up): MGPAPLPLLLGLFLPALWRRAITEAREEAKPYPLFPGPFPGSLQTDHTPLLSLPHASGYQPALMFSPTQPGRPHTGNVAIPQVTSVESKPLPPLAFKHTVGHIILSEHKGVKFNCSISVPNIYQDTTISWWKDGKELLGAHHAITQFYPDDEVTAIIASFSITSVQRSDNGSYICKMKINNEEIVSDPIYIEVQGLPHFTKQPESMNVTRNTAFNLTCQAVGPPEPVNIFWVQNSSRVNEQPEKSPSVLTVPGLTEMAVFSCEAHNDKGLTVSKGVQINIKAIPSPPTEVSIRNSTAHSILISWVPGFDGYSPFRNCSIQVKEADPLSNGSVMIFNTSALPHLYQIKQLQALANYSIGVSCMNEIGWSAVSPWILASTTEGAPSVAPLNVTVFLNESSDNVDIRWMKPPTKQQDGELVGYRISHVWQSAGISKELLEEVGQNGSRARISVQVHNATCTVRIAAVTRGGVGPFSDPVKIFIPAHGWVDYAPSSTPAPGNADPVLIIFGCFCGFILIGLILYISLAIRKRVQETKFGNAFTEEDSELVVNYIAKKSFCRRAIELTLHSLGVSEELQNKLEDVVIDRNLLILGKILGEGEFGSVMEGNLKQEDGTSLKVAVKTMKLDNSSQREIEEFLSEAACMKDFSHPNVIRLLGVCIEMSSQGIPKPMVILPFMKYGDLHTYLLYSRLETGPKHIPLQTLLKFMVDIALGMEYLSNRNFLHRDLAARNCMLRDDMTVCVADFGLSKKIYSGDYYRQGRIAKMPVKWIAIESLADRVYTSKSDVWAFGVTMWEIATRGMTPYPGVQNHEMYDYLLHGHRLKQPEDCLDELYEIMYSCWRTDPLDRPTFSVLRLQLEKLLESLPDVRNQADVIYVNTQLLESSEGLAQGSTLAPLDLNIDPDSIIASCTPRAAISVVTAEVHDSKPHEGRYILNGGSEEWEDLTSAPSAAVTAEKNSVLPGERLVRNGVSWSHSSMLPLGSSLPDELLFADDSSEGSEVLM
# [9] = target: Fes (UniProt P07332); assay: as above
# [10] = target: FGFR1 (UniProt P11362); assay: as above
# FGFR1, sequence (P11362 whole entry, looked up): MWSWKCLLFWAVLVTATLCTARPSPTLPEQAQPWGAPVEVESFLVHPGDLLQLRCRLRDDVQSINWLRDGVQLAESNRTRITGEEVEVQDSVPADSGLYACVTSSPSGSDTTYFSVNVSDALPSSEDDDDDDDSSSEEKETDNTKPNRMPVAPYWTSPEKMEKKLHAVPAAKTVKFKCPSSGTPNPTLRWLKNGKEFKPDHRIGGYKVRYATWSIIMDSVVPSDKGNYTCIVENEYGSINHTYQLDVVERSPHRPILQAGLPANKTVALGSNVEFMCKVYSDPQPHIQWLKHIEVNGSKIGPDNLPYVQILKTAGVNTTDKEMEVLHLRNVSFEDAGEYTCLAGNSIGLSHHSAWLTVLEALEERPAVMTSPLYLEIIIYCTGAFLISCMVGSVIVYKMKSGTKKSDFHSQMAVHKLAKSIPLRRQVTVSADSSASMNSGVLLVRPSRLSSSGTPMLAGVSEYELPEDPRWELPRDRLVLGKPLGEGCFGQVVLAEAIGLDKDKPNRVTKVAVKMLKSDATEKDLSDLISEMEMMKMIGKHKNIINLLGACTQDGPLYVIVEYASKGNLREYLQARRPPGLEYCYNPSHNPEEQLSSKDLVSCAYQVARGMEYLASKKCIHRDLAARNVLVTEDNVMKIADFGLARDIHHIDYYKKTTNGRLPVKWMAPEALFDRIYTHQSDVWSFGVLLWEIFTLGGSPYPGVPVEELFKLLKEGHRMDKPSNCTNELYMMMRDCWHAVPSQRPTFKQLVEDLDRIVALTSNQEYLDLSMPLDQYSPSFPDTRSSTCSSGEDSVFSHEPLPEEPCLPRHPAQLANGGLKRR
# [11] = tested on: c-Src; assay: as above
# [12] = tested on: AncSZ; assay: as above
# [13] = target: EPHB2 (UniProt P29323); assay: as above
# [14] = target: Hck (UniProt P08631); assay: as above
# Hck, sequence (P08631 whole entry, looked up): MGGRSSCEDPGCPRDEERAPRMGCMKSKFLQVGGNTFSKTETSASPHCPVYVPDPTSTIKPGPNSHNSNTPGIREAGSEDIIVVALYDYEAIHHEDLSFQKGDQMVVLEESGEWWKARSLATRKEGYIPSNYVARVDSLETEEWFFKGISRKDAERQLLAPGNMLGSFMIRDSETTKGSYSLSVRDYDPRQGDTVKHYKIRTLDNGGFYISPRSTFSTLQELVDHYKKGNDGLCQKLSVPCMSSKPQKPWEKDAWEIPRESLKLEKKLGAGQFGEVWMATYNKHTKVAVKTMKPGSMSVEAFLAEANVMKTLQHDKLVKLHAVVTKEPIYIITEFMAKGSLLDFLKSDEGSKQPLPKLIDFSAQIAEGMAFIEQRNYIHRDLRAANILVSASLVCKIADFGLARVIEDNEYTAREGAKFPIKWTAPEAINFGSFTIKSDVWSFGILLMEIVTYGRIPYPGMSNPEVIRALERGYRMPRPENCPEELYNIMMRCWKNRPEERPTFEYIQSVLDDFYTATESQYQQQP
# [15] = target: EPHB1 (UniProt P54762); assay: as above
# EPHB1, sequence (P54762 whole entry, looked up): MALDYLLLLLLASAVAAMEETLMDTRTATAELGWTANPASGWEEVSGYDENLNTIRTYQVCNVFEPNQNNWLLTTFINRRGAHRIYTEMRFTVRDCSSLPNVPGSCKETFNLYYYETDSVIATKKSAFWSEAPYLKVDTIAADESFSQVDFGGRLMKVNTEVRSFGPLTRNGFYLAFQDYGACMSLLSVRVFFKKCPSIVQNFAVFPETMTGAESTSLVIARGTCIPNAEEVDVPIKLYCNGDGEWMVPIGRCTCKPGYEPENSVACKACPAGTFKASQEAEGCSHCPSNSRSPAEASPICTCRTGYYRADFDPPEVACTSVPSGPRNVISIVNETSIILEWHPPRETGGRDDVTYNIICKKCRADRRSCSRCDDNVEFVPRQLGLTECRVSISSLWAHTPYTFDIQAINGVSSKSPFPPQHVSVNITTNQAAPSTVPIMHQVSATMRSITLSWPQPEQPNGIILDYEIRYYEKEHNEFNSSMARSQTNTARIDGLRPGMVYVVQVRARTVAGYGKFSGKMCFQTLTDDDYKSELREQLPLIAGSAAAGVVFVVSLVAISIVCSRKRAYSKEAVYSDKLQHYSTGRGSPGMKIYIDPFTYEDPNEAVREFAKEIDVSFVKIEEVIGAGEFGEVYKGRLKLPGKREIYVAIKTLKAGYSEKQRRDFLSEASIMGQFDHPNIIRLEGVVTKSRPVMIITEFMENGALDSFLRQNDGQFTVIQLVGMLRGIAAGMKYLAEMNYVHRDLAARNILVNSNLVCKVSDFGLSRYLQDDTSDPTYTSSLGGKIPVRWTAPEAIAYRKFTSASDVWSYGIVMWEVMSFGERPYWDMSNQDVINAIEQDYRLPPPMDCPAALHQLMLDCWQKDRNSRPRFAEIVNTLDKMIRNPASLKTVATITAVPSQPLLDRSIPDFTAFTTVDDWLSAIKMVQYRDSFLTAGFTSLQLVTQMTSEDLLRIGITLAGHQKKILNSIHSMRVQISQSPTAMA
# [16] = tested on: c-Abl (mouse); assay: as above
# 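Wherever SH2 binding enrichment of the phosphorylated peptide, bacterial display is given: peptide library displayed on the E. coli surface as eCPX fusions, selected cells deep-sequenced, score is each peptide's frequency after selection divided by its frequency in the input.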
# 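Wherever phosphorylation enrichment, bacterial display is given: 11-residue human phosphosite peptides and single-mutation variants displayed on the E. coli surface, counted by deep sequencing, each peptide's frequency after selection divided by its frequency in the unselected input library; frequency after pTyr selection over input frequency; kinase dosed for 20-30% of maximal phosphorylation in three min.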
Sequence,SH2 binding enrichment [1],SH2 binding enrichment [2],SH2 binding enrichment [3],phosphorylation enrichment [4],phosphorylation enrichment [5],phosphorylation enrichment [6],phosphorylation enrichment [7],phosphorylation enrichment [8],phosphorylation enrichment [9],phosphorylation enrichment [10],phosphorylation enrichment [11],phosphorylation enrichment [12],phosphorylation enrichment [13],phosphorylation enrichment [14],phosphorylation enrichment [15],phosphorylation enrichment [16]
SARFPYLMAEK [LDHB_Y173_R172P],0.579,0.912,0.523,0.389,0.315,0.455,0.504,0.325,0.687,0.387,0.483,0.604,0.416,0.422,0.373,0.361
SDGHEYIFVDP [PDGFRB_Y579_YF],0.769,0.769,0.544,0.447,0.509,1.37,1,0.425,0.811,1.75,0.512,2.08,0.486,0.43,0.478,0.573
SEPDLYCDPRG [PKP1_Y160],0.563,1.03,0.93,2.37,1.95,1.45,1.23,1.46,1.15,1.94,2.17,2.48,3.01,5.26,4.34,1.31
SETDDYAEIIV [PTK2_Y397_D402V],0.795,0.975,0.761,0.82,0.519,1.2,1.09,0.524,1.17,1.16,0.61,1.4,1.04,0.655,0.83,0.677
SGDITYGQFAQ [PLCG1_Y210],0.53,0.716,0.557,0.387,8.52,0.422,0.796,0.362,0.632,0.426,5.78,0.596,0.4,4.63,0.47,0.495
SGPRRYTIAAL [TTR_Y125],0.533,0.867,0.572,0.383,0.482,0.419,0.639,0.428,0.579,0.456,0.498,0.605,0.53,0.375,0.444,0.637
SGTYQYIIAKF [FOXL2_Y83_I80T],0.696,0.74,0.541,2.58,0.749,2.42,1.29,5.26,1.51,3.65,0.943,1.43,1.53,2.06,4.98,1.17

# Now from value to sequence, other results behind:
SH2 binding enrichment [1],SH2 binding enrichment [2],SH2 binding enrichment [3],Sequence,phosphorylation enrichment [4],phosphorylation enrichment [5],phosphorylation enrichment [6],phosphorylation enrichment [7],phosphorylation enrichment [8],phosphorylation enrichment [9],phosphorylation enrichment [10],phosphorylation enrichment [11],phosphorylation enrichment [12],phosphorylation enrichment [13],phosphorylation enrichment [14],phosphorylation enrichment [15],phosphorylation enrichment [16]
0.909,0.761,0.975,SAPPSYEETVA [LITAF_Y23],0.531,0.645,0.672,0.828,0.414,1.09,0.65,0.398,1.1,0.636,0.569,0.6,0.727
0.431,0.789,0.793,SDVDLYQVRIA [PSMD9_Y70_T74I],0.756,1.86,0.583,1.04,0.463,0.892,0.598,2.13,0.92,0.497,4.07,0.594,0.579
0.386,0.681,0.906,SEKISYVFMKR [SSX7_Y48_L43S_YF],0.458,0.436,0.75,1.05,0.378,1.32,0.52,0.412,1.25,0.597,0.46,0.599,0.822
0.556,0.903,1.59,SEKIVYGHVDD [ACO2_Y71_L74V],0.466,0.515,0.529,0.738,0.383,0.805,0.471,0.649,0.715,0.469,0.479,0.41,0.677
0.439,0.715,0.563,SENFTYIWWLN [PSG4_Y271_K267E_YF],0.674,0.513,1.03,1.46,0.404,1.59,0.543,0.355,1.47,0.771,0.559,0.73,0.96
0.562,0.887,0.837,SHEELYKWFTS [DYNC1H1_Y3051],3.4,0.918,3.6,1.05,4.28,1.21,5.57,1.55,1.28,0.577,1.25,0.608,1.33
0.583,1.11,0.693,SHGQDYLAGNK [GSTA2_Y147_V149A],0.421,0.458,0.49,0.64,0.471,0.845,0.597,0.404,0.641,0.36,0.364,0.348,0.452
1.04,1.4,1.72,SHNKFYMLVAR [MFSD8_Y134_YF],0.607,0.452,0.875,1.1,0.479,1.15,0.532,0.36,1.15,0.607,0.475,0.673,0.705
0.744,1.08,0.586,SKDQICPMKLK [RANBP17_Y823_Y823C],0.614,0.599,0.643,0.746,0.553,0.781,0.595,0.505,0.825,0.565,0.573,0.385,0.632
